Measured values taken from US20060275803A1, “Rat and mouse members of the CRISP family of genes” (Wyeth, priority 2005, published 2006).

Target: T1, rCRISPA (rCRISP1) (Rattus norvegicus, UniProt P12020)
T1 construct: Native rCRISPA (rCRISP1) protein, purified with DANA present; from tissue; host or cells: rat epididymis
T1 sequence (P12020 20-246): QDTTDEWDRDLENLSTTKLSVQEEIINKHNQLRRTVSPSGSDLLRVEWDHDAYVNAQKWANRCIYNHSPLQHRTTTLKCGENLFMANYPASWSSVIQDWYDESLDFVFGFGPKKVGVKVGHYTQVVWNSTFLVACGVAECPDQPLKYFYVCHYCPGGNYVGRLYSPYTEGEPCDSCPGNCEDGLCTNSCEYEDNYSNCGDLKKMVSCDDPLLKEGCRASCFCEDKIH
Experiment: Protease activity screen: cleavage of substrate peptides by native rCRISPA (+DANA protocol), measured by fluorescence
Format: biochemical
Settings: 5 μM substrate peptide, 1 μg enzyme, 100 mM NaCl, 25 mM Tris-Cl, pH 7.5; fluorescence at ten minute intervals for 130 minutes; FIG. 13
Experimental: FIG. 13 is a graph showing rCRISPA (rCRISP1) protease activity (assay conditions: 5 μM substrate peptide, 1 μg enzyme, 100 mM NaCl, 25 mM Tris-Cl, pH 7.5). A. Cleaved peptides A04 (RGARARLG), N08 (RKRRAPLA), N12 (AKRAASQI), N17 (RKRRAVLT), B22 (APQRFGKK), B17 (RQRYGKRS), B23 (RVKRYRQS), H03 (RNKRAVQG). B. Cleaved peptides B20 (PQRFGRNT), C16 (RVLGLKAH), J21 (LRNRAQSG), H07 (RVKRQVRS), H11 (RRLLRAIP), N05 (RARRELAP), H01 (RKKRSTKK), O22 (GGVRGPRV), O16 (AATRRQAV), O23 (KNVAMQKG), G24 (RRKRSTRE), A09 (RMRRYADA), M02 (EKQRIIGG), H17 (NGLRADPM). C. Uncleaved peptides L16 (KTPRWGG), N10 (FYRADQPR), B11 (AAGVAPLS), J03 (PQLHSTGG), C01 (GPQGLLGA), K11 (VIPRSGGS), M07 (GLQRALEI), A01 (WQGGRRKF), H02 (RAKRSVHF), A10 (SAARPAPP), M16 (RSRREADL), A05 (SYRKVLGQ), M18 (VHRDMAAR), C23 (RDAQAHPG), M09 (GSQHIRAE), E19 (RLGREGVQ), D06 (ALAEAMKK).
Native rCRISPA (rCRISP1) protein, purified with DANA present (see Example 4), was screened for the ability to cleave 360 unique peptides using the commercially available peptide substrate set (catalog # PrSS-360-75, JPT Peptide Technologies, Springfield, Va.). […] The substrate peptides cleaved by rCRISPA in this assay are represented by blue and green traces noted in FIG. 13. Peptides that were not cleaved by rCRISPA are also noted in FIG. 13.

| cleavage of substrate peptide by rCRISPA (rCRISP1) protease activity | Substance |
| --- | --- |
| Cleaved | GGVRGPRV [O22, substrate peptide of the commercial peptide substrate set PrSS-360-75, JPT Peptide Technologies] |
| Cleaved | KNVAMQKG [O23, substrate peptide of the commercial peptide substrate set PrSS-360-75, JPT Peptide Technologies] |
| Cleaved | AATRRQAV [O16, substrate peptide of the commercial peptide substrate set PrSS-360-75, JPT Peptide Technologies] |
| Cleaved | RKRRAVLT [N17, substrate peptide of the commercial peptide substrate set PrSS-360-75, JPT Peptide Technologies] |
| Cleaved | AKRAASQI [N12, substrate peptide of the commercial peptide substrate set PrSS-360-75, JPT Peptide Technologies] |
| Uncleaved | VHRDMAAR [M18, substrate peptide of the commercial peptide substrate set PrSS-360-75, JPT Peptide Technologies] |

Second part, the substance before the results:

| Substance | cleavage of substrate peptide by rCRISPA (rCRISP1) protease activity |
| --- | --- |
| RQRYGKRS [B17, substrate peptide of the commercial peptide substrate set PrSS-360-75, JPT Peptide Technologies] | Cleaved |
| PQRFGRNT [B20, substrate peptide of the commercial peptide substrate set PrSS-360-75, JPT Peptide Technologies] | Cleaved |
| RVKRQVRS [H07, substrate peptide of the commercial peptide substrate set PrSS-360-75, JPT Peptide Technologies] | Cleaved |
| WQGGRRKF [A01, substrate peptide of the commercial peptide substrate set PrSS-360-75, JPT Peptide Technologies] | Uncleaved |
| AAGVAPLS [B11, substrate peptide of the commercial peptide substrate set PrSS-360-75, JPT Peptide Technologies] | Uncleaved |
| RRLLRAIP [H11, substrate peptide of the commercial peptide substrate set PrSS-360-75, JPT Peptide Technologies] | Cleaved |
| RMRRYADA [A09, substrate peptide of the commercial peptide substrate set PrSS-360-75, JPT Peptide Technologies] | Cleaved |
| SYRKVLGQ [A05, substrate peptide of the commercial peptide substrate set PrSS-360-75, JPT Peptide Technologies] | Uncleaved |
| GPQGLLGA [C01, substrate peptide of the commercial peptide substrate set PrSS-360-75, JPT Peptide Technologies] | Uncleaved |
| KTPRWGG [L16, substrate peptide of the commercial peptide substrate set PrSS-360-75, JPT Peptide Technologies] | Uncleaved |
| NGLRADPM [H17, substrate peptide of the commercial peptide substrate set PrSS-360-75, JPT Peptide Technologies] | Cleaved |
| RSRREADL [M16, substrate peptide of the commercial peptide substrate set PrSS-360-75, JPT Peptide Technologies] | Uncleaved |
| RDAQAHPG [C23, substrate peptide of the commercial peptide substrate set PrSS-360-75, JPT Peptide Technologies] | Uncleaved |
| GLQRALEI [M07, substrate peptide of the commercial peptide substrate set PrSS-360-75, JPT Peptide Technologies] | Uncleaved |
| RVLGLKAH [C16, substrate peptide of the commercial peptide substrate set PrSS-360-75, JPT Peptide Technologies] | Cleaved |
